Measurements as given in article PMC6684389.

B1: probe 1 (ssRNA)
RNA: AAAGGACGUGG
modifications: m6A at position 6
B2: probe 2 (ssRNA)
RNA: AAAGGACGUGG

Target: YTHDC1 YTH domain (UniProt Q96MU7 345-509)
Assay: MST

Binder	Kd
B1	0.39 µM
B2	16.9 µM
